Experimental data from the supplement of paper PMC9170038.

Experiments:
MS2 coat protein [1] = assay: apparent KD of MS2 coat protein, switch ON state; designed switch direction (-1 OFF switch, 1 ON switch): -1; higher = weaker reporter binding; details: FMN input: 0 or 200 uM; Eterna round: R93 (includes R88 designs)
Method in brief: (§1)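 Illumina sequencing clusters were used for on-chip transcription of designed RNA switches. Titration with SNAP-549-labelled MS2 coat protein followed, in twofold steps from 0.7 or 1.5 nM to 3 µM in 100 mM Tris-HCl pH 7.5, 80 mM KCl, 4 mM MgCl2, without or with constant ligand. Apparent KD is each design's median of fits to normalised cluster binding curves.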

MS2 coat protein [2] = assay: apparent KD of MS2 coat protein, switch OFF state (with FMN for OFF switches, without FMN for ON switches); designed switch direction (-1 OFF switch, 1 ON switch): -1; higher = weaker reporter binding; details: FMN input: 0 or 200 uM; Eterna round: R93 (includes R88 designs)
Method in brief: as §1

Row | Sequence | apparent KD of MS2 coat protein (MS2 coat protein [1]) [µM] | apparent KD of MS2 coat protein (MS2 coat protein [2]) [µM]
1 | AAAAAACAUGAGGAUCACCCAUGUCAGGAUAUGAACGAAAAUAAAUAAAAAUAAAAGUUCAGAAGGGACGAAAA [66%, Wbt, 17] | 0.038 | 0.0415
2 | AAAAAACAUGAGGAUCACCCAUGUCAGGAUAUGCCAACCUAAAAAAAAAAAAAAAAACGUAGAAGGGACAAAAA [Bilbo Confounded 2 - Jieux - Exclusion 1] | 0.0287 | 0.0235
3 | AAAAAACAUGAGGAUCACCCAUGUGAGGAUAUACGAAAGUAGAAGGCACUAAAAAAAAAAAGAAGGAAAAAAAA [Meechl Ex1 R2 m0] | 0.0242 | 0.0424
4 | AAAAAACAUGAGGAUCACCCAUGUGAGGAUAUCCAGAAGGGAAUAAAAUAACACGAAAGGAGAAGGCACAAAAA [Ex 1 May 36] | 0.034 | 0.0317
5 | AAAAAACAUGAGGAUCACCCAUGUGAGGAUAUCGUGCAGAAAAAAAAAAAAAACUGCACGAGAAGGCACAUGAA | 0.0389 | 0.105
6 | AAAAAACAUGAGGAUCACCCAUGUGAGGAUAUCUGUAUUCAAUCCUCGGAUUGAAUACAGAGAAGGCACAUGAA [Ex1: 611] | 0.034 | 0.33
7 | AAAAAACAUGAGGAUCACCCAUGUGAGGAUAUGACUUAAAUAAAGAAAGAAGAAAUAGUCAGAAGGCACAAAUA [Mat - Mod of Nando] | 0.0286 | 0.0429
8 | AAAAAACAUGAGGAUCACCCAUGUGAGGAUAUGAUGAAAGAUUGAAAAAGGUUGAAAGUCAGAAGGUAUGUGAA [Exclusion 1.3] | 0.0304 | 0.0357
9 | AAAAAACAUGAGGAUCACCCAUGUGAGGAUAUGCUAAAAAAAUCCGCAUGAAAAAAUAGCAGAAGGCACAUAAA [PK2] | 0.0296 | 0.0525
10 | AAAAAACAUGAGGAUCACCCAUGUUAGGAUAUGCUAUGGAAAAUAAAAAUAAAACAUAGCAGAAGGGACAAAAA [Denovo 1] | 0.0213 | 0.032
11 | AAAAAACAUGAGGAUCACCCAUGUUAGGAUAUUCCUAAAAAAAAAAAAAAAAAAAAUGGAAGAAGGGACAAAAA [excalibur 9] | 0.0212 | 0.0206
12 | AAAAACCUAGGAUAUACAUGAGGAUCACCCAUGUAAAGAAACAAAAAGGGAAACACAAGUAGAAGGAGGAAGAA [JR_Exc003_Sub1203] | 0.0226 | 0.0274
13 | AAAAACUGAGGAUAUACAUGAGGAUCACCCAUGUGAAAGAACGAAAAACGAAAAGCAAGUAGAAGGCAGAAAAA [Ruby 77] | 0.0209 | 0.0261
14 | AAAAAGAGAGGAUAUACAUGAGGAUCACCCAUGUAACAUUAAAUAAAUAAAAUAAAGUGUAGAAGGCUCAAAAA [65%, Moding Exclusion3-cac2, 24] | 0.0279 | 0.0343
15 | AAAAAGAGAGGAUAUACAUGAGGAUCACCCAUGUGAAAGACGAAAAAAAGUCUAAAGUGUAGAAGGCUCAAAAA [65%, Moding Exclusion3-cac2, 14] | 0.0253 | 0.104
16 | AAAAAGAUAGGAUAUACGAACAUGUCAAAAGACGUGAAGGGACAUGAGGAUCACCCAUGUAGAAGGAUUAAAAA [JL Wide Open 39] | 0.0388 | 0.0172
17 | AAAAAGCGAGGAUAUACAUGAGGAUCACCCAUGUAAAAAAAAAGAGAUGAAACAUCAUGUAGAAGGCGCAAAAA [Excls3-I] | 0.131 | 0.0671
18 | AAAAAGCUAGGAUAUACGAAAAAAAAGGGUAGAAAAAAAAAACAUGAGGAUCACCCAUGUAGAAGGAGCAAAAA [Mat - Exclusion 2 - Tesla mod - D34] | 0.0515 | 0.103
19 | AAAAAGGGAGGAUAUACAUGAGGAUCACCCAUGUAUCAGACGAAAAAGAGUCUGAAAUGUAGAAGGCCCAAAAA [65%, Moding Exclusion3-cac2, 2] | 0.0207 | 0.0358
